In the RNAGym collection of RNA variant scans (doi:10.7554/elife.80360):

B1: HDV Ribozyme (parent)
chain: GGCCGGCAUGGUCCCAGCCUCCUCGCUGGCGCCGGCUGGGCAACAUUCCGAGGGGACCGUCCCCUCGGUAAUGGCGAAUGGGACCCA

Variants of: B1
Test: self-cleavage, relative activity (ratio to wild type); higher = more cleavage; co-transcriptional

Variant | self-cleavage
U9G U69G | 0.767
U9G U69A | 0.831
U9G G82C | 0.646
U9C C64A | 0.831
G10A C30G | 0.0777
U9G U72A | 0.633
U9G U72G | 0.776
U9C C30A | 0.458
G10A C57G | 0.912
G10A C57A | 0.727
G10A A77C | 0.237
G10A A77U | 0.169
U9G G55A | 0.962
U9C G55A | 1.27
U9C G55U | 1.2
U9C G55C | 0.703
U9G C19A | 0.208
U9C G35A | 0.394
U9C G35U | 0.135
G10A G73A | 0.175
U9C C85A | 0.969
U9C G39A | 0.567
U9G A70C | 0.886
U9G A70U | 0.739

Variant | self-cleavage
G10A C24U | 0.338
G10A C24G | 0.061
U9C A87G | 1.12
U9G G38A | 0.156
U9C C26G | 0.886
U9G G17U | 0.415
U9G G17C | 0.166
G10A G54U | 0.84
G10A G54C | 0.582
U9C G76C | 1.11
U9G C58U | 1.2
U9C G34U | 0.178
U9G A87G | 1.15
U9G C33U | 0.87
G10A C19U | 0.0326
U9G A78U | 0.0692
U9G A56C | 0.462
U9C C41G | 0.831
U9C G29C | 0.138
U9C G29U | 0.115
G10A C26G | 1.11
G10A C26A | 0.906
U9C G82A | 0.266
U9C G82C | 0.262

Variant | self-cleavage
G10A A83C | 0.287
G10A A83U | 0.322
U9G | 1.02
U9G G81A | 0.8
U9G U46C | 0.748
G10A C13A | 0.0941
G10A G25C | 0.0639
G10A G25A | 0.126
U9C C63U | 0.987
U9C C63G | 0.831
G10A G76A | 1.04
G10A G76C | 0.772
U9C U37G | 0
U9C U37A | 0.289
U9C G54C | 1.11
U9C G54U | 0.937
G10A G50C | 0.513
G10A C44A | 0.321
U9C U72A | 0.587
G10A G11A | 0.189
U9C G10A | 0.985
G10A A87C | 0.764
U9C C66A | 1.04
G10A G59U | 0.95

Variant | self-cleavage
U9C A77U | 0.867
U9C U47A | 1.11
U9G C24G | 0.453
U9C C22A | 0.192
U9C G67U | 1.12
U9C G67C | 0.703
G10A A71G | 0.703
G10A A71C | 0.456
U9G A45C | 0.712
G10A C84A | 0.562
G10A C84G | 0.591
U9C C19A | 0.175
U9C C48A | 0.911
U9G G34A | 0.344
U9G G35C | 0.0639
G10A A78G | 0.302
G10A G39C | 0.182
U9C U79A | 0.831
U9C A70U | 0.831
U9C C33G | 0.249
G10A C49G | 0.46
U9G G50U | 1.15
U9C A51C | 1.49
U9G C84A | 0.554

Variant | self-cleavage
U9G U79A | 0.68
U9G C44A | 0.415
U9C C86A | 1.03
U9G G74C | 0.437
U9G G74A | 0.751
U9G U47G | 1.21
U9G G39A | 0.475
G10A C61U | 0.84
U9C G73U | 0.383
G10A C63A | 0.76
U9C U46G | 1.19
G10A G34U | 0.257
G10A G34A | 0.164
U9C G52A | 1.04
U9C G52U | 1.06
U9G C13G | 0.111
U9G G29C | 0
U9G G29A | 0.123
U9G C63G | 1.17
U9G C14G | 1.2
U9G C14U | 1.08
U9C A56C | 1.06
U9C G53C | 1.15
G10A G67C | 0.599

Variant | self-cleavage
G10A G67U | 0.767
G10A C36G | 0.101
U9G C26A | 1.23
U9G C26U | 0.554
U9C C57U | 0.95
U9C G25U | 0.104
U9C C14U | 1.11
G10A C75A | 0.0898
G10A C75U | 0.0992
U9C G81C | 0.598
U9G G68U | 0.782
U9G U37G | 0.111
G10A C15U | 0.332
G10A C15A | 0.208
U9G G40U | 1.06
U9G G73C | 0.767
U9G G73A | 0.665
U9G U20C | 0
U9C C44G | 0.63
U9C G74C | 0.277
U9G C48G | 0.997
U9G C48A | 1.25
G10A C48U | 0.895
U9G G10A | 1.25

Variant | self-cleavage
U9G A77G | 0.767
G10A C66G | 0.623
G10A G55C | 0.734
U9G C86G | 1.33
U9G C86U | 1.42
U9C U23G | 0.831
U9C U23A | 1.13
U9G C41U | 0.997
U9G C41A | 0.831
U9C G11A | 0.0755
U9G C62U | 0.731
U9C A78C | 0.128
U9G A42U | 0.587
U9G G67A | 0.88
G10A G31A | 0.203
U9C U20G | 0.443
U9G C57U | 1.03
G10A A51U | 0.923
U9G C36A | 0.401
U9G C36U | 0.864
G10A G74C | 0.105
U9G C61U | 1.05
G10A C86U | 0.774
